Measured values taken from patent US20210388110A1 (published 2021).

Molecular target: T1, soluble human CD3ε chain (human, UniProt P07766 23-126, limits assumed)
T1 construct: the text says soluble human CD3ε chain; also called human CD3 epsilon chain
Assay: SPR (Biacore)

T1 sequence (P07766 23-126 limits assumed): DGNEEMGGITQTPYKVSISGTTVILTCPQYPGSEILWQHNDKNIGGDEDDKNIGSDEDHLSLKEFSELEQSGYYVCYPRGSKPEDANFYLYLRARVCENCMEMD

Row | Binder | Kd [nM]
1 | TR01H040-E22Hh/none-Hi-Kn010G3/L0241-k0 (antibody, human IgG1, kappa, L234A L235A, N297A, single-arm) heavy: QVQLVESGGGLVQPGRSLRLSCAASGFTFSNAWMHWVRQAPGKGLEWVAQIKDKSQNYATYYAESVKGRFTISRADSKNSIYLQMNSLKTEDTAVYYCRYVHYSASYGVDAWGQGTTVTVSSASTKGPSVFPLAPSSKSTSGGTAALGCLVKDYFPEPVTVSWNSGALTSGVHTFPAVLQSSGLYSLSSVVTVPSSSLGTQTYICNVNHKPSNTKVDKKVEPKSCDKTHTCPPCPAPEAAGGPSVFLFPPKPKDTLMISRTPEVTCVVVDVSHEDPEVKFNWYVDGVEVHNAKTKPREEQYASTYRVVSVLTVLHQDWLNGKEYKCKVSNKALPAPIEKTISKAKGQPREPQVYTLPPSRCELTKNQVSLSCAVKGFYPSDIAVEWESNGQPENNYKTTPPVLDSDGSFFLVSKLTVDKSRWQQGNVFSCSVMHEALHNHYTQKSLSLSPDYKDDDDK EPKSSDKTHTCPPCPAPELLGGPSVFLFPPKPKDTLMISRTPEVTCVVVDVSHEDPEVKFNWYVDGVEVHNAKTKPREEQYNSTYRVVSVLTVLHQDWLNGKEYKCKVSNKALPAPIEKTISKAKGQPREPQVCTLPPSRDELTKNQVSLWCLVKGFYPSDIAVEWESNGQPENNYKTTPPVLDSDGSFFLYSKLTVDKSRWQQGNVFSCSVMHEALHNRYTQKSLSLSP light: DIVMTQSPLSLPVTPGEPASISCRSSESPVHSNRNTYLHWYQQKPGQAPRLLIYKVSNRFWGVPDRFSGSGSGTDFTLKISRVEAEDVGVYYCYQGTQVPYTFGQGTKLEIKRTVAAPSVFIFPPSDEQLKSGTASVVCLLNNFYPREAKVQWKVDNALQSGNSQESVTEQDSKDSTYSLSSTLTLSKADYEKHKVYACEVTHQGLSSPVTKSFNRGEC | 3.48
2 | TR01H040-E22Hh/none-Hi-Kn010G3/L0243-k0 (antibody, human IgG1, kappa, L234A L235A, N297A, single-arm) heavy: QVQLVESGGGLVQPGRSLRLSCAASGFTFSNAWMHWVRQAPGKGLEWVAQIKDKSQNYATYYAESVKGRFTISRADSKNSIYLQMNSLKTEDTAVYYCRYVHYSASYGVDAWGQGTTVTVSSASTKGPSVFPLAPSSKSTSGGTAALGCLVKDYFPEPVTVSWNSGALTSGVHTFPAVLQSSGLYSLSSVVTVPSSSLGTQTYICNVNHKPSNTKVDKKVEPKSCDKTHTCPPCPAPEAAGGPSVFLFPPKPKDTLMISRTPEVTCVVVDVSHEDPEVKFNWYVDGVEVHNAKTKPREEQYASTYRVVSVLTVLHQDWLNGKEYKCKVSNKALPAPIEKTISKAKGQPREPQVYTLPPSRCELTKNQVSLSCAVKGFYPSDIAVEWESNGQPENNYKTTPPVLDSDGSFFLVSKLTVDKSRWQQGNVFSCSVMHEALHNHYTQKSLSLSPDYKDDDDK EPKSSDKTHTCPPCPAPELLGGPSVFLFPPKPKDTLMISRTPEVTCVVVDVSHEDPEVKFNWYVDGVEVHNAKTKPREEQYNSTYRVVSVLTVLHQDWLNGKEYKCKVSNKALPAPIEKTISKAKGQPREPQVCTLPPSRDELTKNQVSLWCLVKGFYPSDIAVEWESNGQPENNYKTTPPVLDSDGSFFLYSKLTVDKSRWQQGNVFSCSVMHEALHNRYTQKSLSLSP light: DIVMTQSPLSLPVTPGEPASISCRSSEPPVHSNRNTYLHWYQQKPGQAPRLLIYKVSNRFRGVPDRFSGSGSGTDFTLKISRVEAEDVGVYYCGQGTQVPYTFGQGTKLEIKRTVAAPSVFIFPPSDEQLKSGTASVVCLLNNFYPREAKVQWKVDNALQSGNSQESVTEQDSKDSTYSLSSTLTLSKADYEKHKVYACEVTHQGLSSPVTKSFNRGEC | 24.6
3 | TR01H040-E22Hh/none-Hi-Kn010G3/TR01L008-k0 (antibody, human IgG1, kappa, L234A L235A, N297A, single-arm) heavy: QVQLVESGGGLVQPGRSLRLSCAASGFTFSNAWMHWVRQAPGKGLEWVAQIKDKSQNYATYYAESVKGRFTISRADSKNSIYLQMNSLKTEDTAVYYCRYVHYSASYGVDAWGQGTTVTVSSASTKGPSVFPLAPSSKSTSGGTAALGCLVKDYFPEPVTVSWNSGALTSGVHTFPAVLQSSGLYSLSSVVTVPSSSLGTQTYICNVNHKPSNTKVDKKVEPKSCDKTHTCPPCPAPEAAGGPSVFLFPPKPKDTLMISRTPEVTCVVVDVSHEDPEVKFNWYVDGVEVHNAKTKPREEQYASTYRVVSVLTVLHQDWLNGKEYKCKVSNKALPAPIEKTISKAKGQPREPQVYTLPPSRCELTKNQVSLSCAVKGFYPSDIAVEWESNGQPENNYKTTPPVLDSDGSFFLVSKLTVDKSRWQQGNVFSCSVMHEALHNHYTQKSLSLSPDYKDDDDK EPKSSDKTHTCPPCPAPELLGGPSVFLFPPKPKDTLMISRTPEVTCVVVDVSHEDPEVKFNWYVDGVEVHNAKTKPREEQYNSTYRVVSVLTVLHQDWLNGKEYKCKVSNKALPAPIEKTISKAKGQPREPQVCTLPPSRDELTKNQVSLWCLVKGFYPSDIAVEWESNGQPENNYKTTPPVLDSDGSFFLYSKLTVDKSRWQQGNVFSCSVMHEALHNRYTQKSLSLSP light: DIVMTQSPLSLPVTPGEPASISCQASESLVHSNRNTYLHWYQQKPGQAPRLLIYKVSNRFRGVPDRFSGSGSGTDFTLKISRVEAEDVGVYYCGQGTQVPYTFGQGTKLEIKRTVAAPSVFIFPPSDEQLKSGTASVVCLLNNFYPREAKVQWKVDNALQSGNSQESVTEQDSKDSTYSLSSTLTLSKADYEKHKVYACEVTHQGLSSPVTKSFNRGEC | 29.3
4 | TR01H040-E22Hh/none-Hi-Kn010G3/L0262-k0 (antibody, human IgG1, kappa, L234A L235A, N297A, single-arm) heavy: QVQLVESGGGLVQPGRSLRLSCAASGFTFSNAWMHWVRQAPGKGLEWVAQIKDKSQNYATYYAESVKGRFTISRADSKNSIYLQMNSLKTEDTAVYYCRYVHYSASYGVDAWGQGTTVTVSSASTKGPSVFPLAPSSKSTSGGTAALGCLVKDYFPEPVTVSWNSGALTSGVHTFPAVLQSSGLYSLSSVVTVPSSSLGTQTYICNVNHKPSNTKVDKKVEPKSCDKTHTCPPCPAPEAAGGPSVFLFPPKPKDTLMISRTPEVTCVVVDVSHEDPEVKFNWYVDGVEVHNAKTKPREEQYASTYRVVSVLTVLHQDWLNGKEYKCKVSNKALPAPIEKTISKAKGQPREPQVYTLPPSRCELTKNQVSLSCAVKGFYPSDIAVEWESNGQPENNYKTTPPVLDSDGSFFLVSKLTVDKSRWQQGNVFSCSVMHEALHNHYTQKSLSLSPDYKDDDDK EPKSSDKTHTCPPCPAPELLGGPSVFLFPPKPKDTLMISRTPEVTCVVVDVSHEDPEVKFNWYVDGVEVHNAKTKPREEQYNSTYRVVSVLTVLHQDWLNGKEYKCKVSNKALPAPIEKTISKAKGQPREPQVCTLPPSRDELTKNQVSLWCLVKGFYPSDIAVEWESNGQPENNYKTTPPVLDSDGSFFLYSKLTVDKSRWQQGNVFSCSVMHEALHNRYTQKSLSLSP light: DIVMTQSPLSLPVTPGEPASISCRSSQPPVHSNRNTYLHWYQQKPGQAPRLLIYKVSNRFSGVPDRFSGSGSGTDFTLKISRVEAEDVGVYYCAQGTQVPYTFGQGTKLEIKRTVAAPSVFIFPPSDEQLKSGTASVVCLLNNFYPREAKVQWKVDNALQSGNSQESVTEQDSKDSTYSLSSTLTLSKADYEKHKVYACEVTHQGLSSPVTKSFNRGEC | 18.1
5 | TR01H040-E22Hh/none-Hi-Kn010G3/L0242-k0 (antibody, human IgG1, kappa, L234A L235A, N297A, single-arm) heavy: QVQLVESGGGLVQPGRSLRLSCAASGFTFSNAWMHWVRQAPGKGLEWVAQIKDKSQNYATYYAESVKGRFTISRADSKNSIYLQMNSLKTEDTAVYYCRYVHYSASYGVDAWGQGTTVTVSSASTKGPSVFPLAPSSKSTSGGTAALGCLVKDYFPEPVTVSWNSGALTSGVHTFPAVLQSSGLYSLSSVVTVPSSSLGTQTYICNVNHKPSNTKVDKKVEPKSCDKTHTCPPCPAPEAAGGPSVFLFPPKPKDTLMISRTPEVTCVVVDVSHEDPEVKFNWYVDGVEVHNAKTKPREEQYASTYRVVSVLTVLHQDWLNGKEYKCKVSNKALPAPIEKTISKAKGQPREPQVYTLPPSRCELTKNQVSLSCAVKGFYPSDIAVEWESNGQPENNYKTTPPVLDSDGSFFLVSKLTVDKSRWQQGNVFSCSVMHEALHNHYTQKSLSLSPDYKDDDDK EPKSSDKTHTCPPCPAPELLGGPSVFLFPPKPKDTLMISRTPEVTCVVVDVSHEDPEVKFNWYVDGVEVHNAKTKPREEQYNSTYRVVSVLTVLHQDWLNGKEYKCKVSNKALPAPIEKTISKAKGQPREPQVCTLPPSRDELTKNQVSLWCLVKGFYPSDIAVEWESNGQPENNYKTTPPVLDSDGSFFLYSKLTVDKSRWQQGNVFSCSVMHEALHNRYTQKSLSLSP light: DIVMTQSPLSLPVTPGEPASISCRSSESPVHSNRNTYIHWYQQKPGQAPRLLIYKVSNRFSGVPDRFSGSGSGTDFTLKISRVEAEDVGVYYCYQGTQVPYTFGQGTKLEIKRTVAAPSVFIFPPSDEQLKSGTASVVCLLNNFYPREAKVQWKVDNALQSGNSQESVTEQDSKDSTYSLSSTLTLSKADYEKHKVYACEVTHQGLSSPVTKSFNRGEC | 3.58
6 | TR01H040-E22Hh/none-Hi-Kn010G3/L0250-k0 (antibody, human IgG1, kappa, L234A L235A, N297A, single-arm) heavy: QVQLVESGGGLVQPGRSLRLSCAASGFTFSNAWMHWVRQAPGKGLEWVAQIKDKSQNYATYYAESVKGRFTISRADSKNSIYLQMNSLKTEDTAVYYCRYVHYSASYGVDAWGQGTTVTVSSASTKGPSVFPLAPSSKSTSGGTAALGCLVKDYFPEPVTVSWNSGALTSGVHTFPAVLQSSGLYSLSSVVTVPSSSLGTQTYICNVNHKPSNTKVDKKVEPKSCDKTHTCPPCPAPEAAGGPSVFLFPPKPKDTLMISRTPEVTCVVVDVSHEDPEVKFNWYVDGVEVHNAKTKPREEQYASTYRVVSVLTVLHQDWLNGKEYKCKVSNKALPAPIEKTISKAKGQPREPQVYTLPPSRCELTKNQVSLSCAVKGFYPSDIAVEWESNGQPENNYKTTPPVLDSDGSFFLVSKLTVDKSRWQQGNVFSCSVMHEALHNHYTQKSLSLSPDYKDDDDK EPKSSDKTHTCPPCPAPELLGGPSVFLFPPKPKDTLMISRTPEVTCVVVDVSHEDPEVKFNWYVDGVEVHNAKTKPREEQYNSTYRVVSVLTVLHQDWLNGKEYKCKVSNKALPAPIEKTISKAKGQPREPQVCTLPPSRDELTKNQVSLWCLVKGFYPSDIAVEWESNGQPENNYKTTPPVLDSDGSFFLYSKLTVDKSRWQQGNVFSCSVMHEALHNRYTQKSLSLSP light: DIVMTQSPLSLPVTPGEPASISCRPSQSPVHSNRNTYIQWYQQKPGQAPRLLIYKVSNRFSGVPDRFSGSGSGTDFTLKISRVEAEDVGVYYCIQGTQVPYTFGQGTKLEIKRTVAAPSVFIFPPSDEQLKSGTASVVCLLNNFYPREAKVQWKVDNALQSGNSQESVTEQDSKDSTYSLSSTLTLSKADYEKHKVYACEVTHQGLSSPVTKSFNRGEC | 21.5
